Data as given in patent US20240150402.

B1: Human plasmin (protein)
chain: KVYLSECKTGNGKNYRGTMSKTKNGITCQKWSSTSPHRPRFSPATHPSEGLEENYCRNPDNDPQGPWCYTTDPEKRYDYCDILECEEECMHCSGENYDGKISKTMSGLECQAWDSQSPHAHGYIPSKFPNKNLKKNYCRNPDRELRPWCFTTDPNKRWELCDIPRCTTPPPSSGPTYQCLKGTGENYRGNVAVTVSGHTCQHWSAQTPHTHNRTPENFPCKNLDENYCRNPDGKRAPWCHTTNSQVRWEYCKIPSCDSSPVSTEQLAPTAPPELTPVVQDCYHGDGQSYRGTSSTTTTGKKCQSWSSMTPHRHQKTPENYPNAGLTMNYCRNPDADKGPWCFTTDPSVRWEYCNLKKCSGTEASVVAPPPVVLLPDVETPSEEDCMFGNGKGYRGKRATTVTGTPCQDWAAQEPHRHSIFTPETNPRAGLEKNYCRNPDGDVGGPWCYTTNPRKLYDYCDVPQCAAPSFDCGKPQVEPKKCPGRVVGGCVAHPHSWPWQVSLRTRFGMHFCGGTLISPEWVLTAAHCLEKSPRPSSYKVILGAHQEVNLEPHVQEIEVSRLFLEPTRKDIALLKLSSPAVITDKVIPACLPSPNYVVADRTECFITGWGETQGTFGAGLLKEAQLPVIENKVCNRYEFLNGRVQSTELCAGHLAGGTDSCQGDSGGPLVCFEKDKYILQGVTSWGLGCARPNKPGVYVRVSRFVTWIEGVMRNN
B2: Human matriptase-1 (protein)
chain: GSDEKDCDCGLRSFTRQARVVGGTDADEGEWPWQVSLHALGQGHICGASLISPNWLVSAAHCYIDDRGFRYSDPTQWTAFLGLHDQSQRSAPGVQERRLKRIISHPFFNDFTFDYDIALLELEKPAEYSSMVRPICLPDASHVFPAGKAIWVTGWGHTQYGGTGALILQKGEIRVINQTTCENLLPQQITPRMMCVGFLSGGVDSCQGDSGGPLSSVEADGRIFQAGVVSWGDGCAQRNKPGVYTRLPLFRDWIKENTGV
B3: Human tPA (protein)
chain: SYQVICRDEKTQMIYQQHQSWLRPVLRSNRVEYCWCNSGRAQCHSVPVKSCSEPRCFNGGTCQQALYFSDFVCQCPEGFAGKCCEIDTRATCYEDQGISYRGTWSTAESGAECTNWNSSALAQKPYSGRRPDAIRLGLGNHNYCRNPDRDSKPWCYVFKAGKYSSEFCSTPACSEGNSDCYFGNGSAYRGTHSLTESGASCLPWNSMILIGKVYTAQNPSAQALGLGKHNYCRNPDGDAKPWCHVLKNRRLTWEYCDVPSCSTCGLRQYSQPQFRIKGGLFADIASHPWQAAIFAKHRRSPGERFLCGGILISSCWILSAAHCFQERFPPHHLTVILGRTYRVVPGEEEQKFEVEKYIVHKEFDDDTYDNDIALLQLKSDSSRCAQESSVVRTVCLPPADLQLPDWTECELSGYGKHEALSPFYSERLKEAHVRLYPSSRCTSQHLLNRTVTDNMLCAGDTRSGGPQANLHDACQGDSGGPLVCLNDGRMTLVGIISWGLGCGQKDVPGVYTKVTNYLDWIRDNMRP

Columns and labels:
[1] = target: Final pools of substrates selected with recombinant human matriptase-1
[2] = target: activatable antibodies comprising substrates selected for cleavage by uPA and matriptase (7 substrates tested), having the 3954 mask and C225v5 variant of cetuximab
[3] = target: activatable antibodies comprising substrates selected for cleavage by matriptase (5 substrates tested), having the 3954 mask and C225v5 variant of cetuximab

| Protein | cleavage (flow cytometry of displayed substrate pools) [1] | kcat/KM [2] | kcat/KM [3] | cleavage (flow cytometry of displayed substrate pool) (pool SMP17) |
| --- | --- | --- | --- | --- |
| B1 | but not by tPA or plasmin | – | – | – |
| B2 | The pools were cleaved by matriptase-1 | from about 3,000 to 100,000 M^-1s^-1 for matriptase (7 substrates tested) | kcat/KM values ranging from about 6,500 to 100,000 M^-1s^-1 for matriptase (5 substrates tested) | – |
| B3 | but not by tPA or plasmin | – | – | resistance to tPA |
